Like-named read-outs stand apart in the source and are kept apart here.
What was measured:
[1] = biological target: Histones (bovine), Sigma-Aldrich H9250 (bovine); assay: ITC
[2] = biological target: Histones (bovine), Sigma-Aldrich H9250 (bovine); assay: ITC; remark: listed apart in the source

Ka [1] | Kd [1] | dH [1] | Ka [2] | Kd [2] | dH [2] | Molecule
9.79e+06 M⁻¹ | 102 nM | -15.8 kcal/mol | 7.85e+06 M⁻¹ | 127 nM | -13.4 kcal/mol | γ-crystallin
1.35e+06 M⁻¹ | 743 nM | -8.86 kcal/mol | 1.15e+07 M⁻¹ | 86.4 nM | -10.7 kcal/mol | βL-crystallin (complex)
3.42e+07 M⁻¹ | 29.3 nM | – | – | 400 nM | -6.29 kcal/mol | α-crystallin (complex) chain 1: MDIAIQHPWFKRALGPFYPSRLFDQFFGEGLFEYDLLPFLSSTISPYYRQSLFRTVLDSGVSEVRSDRDKFVIFLDVKHFSPEDLTVKVQEDFVEIHGKHNERQDDHGYISREFHRRYRLPSNVDQSALSCSLSADGMLTFSGPKVPSGVDAGHSERAIPVSREEKPSSAPTS chain 2: MDIAIHHPWIRRPFFPFHSPSRLFDQFFGEHLLESDLFPASTSLSPFYFRPPSFLRAPSWIDTGLSEMRLEKDRFSVNLDVKHFSPEELKVKVLGDVIEVHGKHEERQDEHGFISREFHRKYRIPADVDPLTITSSLSSDGVLTVNGPRRQASGPERTIPITREEKPAVTAAPKK
